Substitutions are numbered along the chain they refer to.
B1: 411G12G1 (antibody, V domains shown)
VH: DVQLVESGGGLVQPGGSRKLSCAASGFTFSGFGMHWIRQAPEKGLEWVAYISSGSRPIYYADTVKGRFTISRDNPKNTLFLQMTSLRSEDTAMYFCARFYYGNSFDHWGQGTLVTVSA
VL: DIVMTQSPSFLTVTAGEKVTMSCKSSQSLLNSGNQKNYLTWYQQKPGQPPKLLIYWASTRESGVPDRFTGSGSGTDFTLTISSVQAEDLAVYYCQNDYSFPLTFGAGTKLELK
notes: mouse hybridoma mAb
B2: 413C12F8 (antibody, V domains shown)
VH: B1 VH with M34V, A40T, S52G
VL: B1 VL with S22N, K24R, K45R, V91L, D97A
notes: mouse hybridoma mAb
B3: 414H6G2 (antibody, V domains shown)
VH: B1 VH with A40T, P41A, K65Q
VL: B1 VL with V91L, D97A
notes: mouse hybridoma mAb
B4: 419A5F3 (antibody, V domains shown)
VH: B1 VH with A40T, G54D, A97G
VL: B1 VL with M21L, K24R, K36R, L89R, V91L, D97A, A106T, K113R
notes: mouse hybridoma mAb
B5: 419A10D4 (antibody, V domains shown)
VH: B1 VH with A40T
VL: B1 VL with K36R, I81V, V91L, D97A
notes: mouse hybridoma mAb
B6: 420D5H5 (antibody, V domains shown)
VH: B1 VH with F29L, A40T, A61V, K65E, A118S
VL: B1 VL with S82R, S83G, V91L, D97A
notes: mouse hybridoma mAb
B7: 420F12G8 (antibody, V domains shown)
VH: B1 VH with T28A, A40T, A97V
VL: B1 VL with S22T, K24R, S28N, Y55S, A86P, V91L, D97A, L102F
notes: mouse hybridoma mAb
B8: 420G10G3 (antibody, V domains shown)
VH: B1 VH with A40T, P41A, K65Q
VL: B1 VL with V91L, D97A
notes: mouse hybridoma mAb
B9: 421H4G3 (antibody, V domains shown)
VH: B1 VH with T28S, M34L, A40T, Y101F, A118T
VL: B1 VL with K24R, K36R, S82N, V91L, D97A
notes: mouse hybridoma mAb
B10: 422E8F9 (antibody, V domains shown)
VH: B1 VH with A40T, K65Q, A118S
VL: B1 VL with V91L, D97A
notes: mouse hybridoma mAb
B11: 425B3D5 (antibody, V domains shown)
VH: B1 VH with A40T, K65Q, A118S
VL: B1 VL with V91L, D97A
notes: mouse hybridoma mAb
B12: 425C6D3 (antibody, V domains shown)
VH: B1 VH with A40T, K65Q, A118S
VL: B1 VL with V91L, D97A
notes: mouse hybridoma mAb
B13: 426D9F6 (antibody, V domains shown)
VH: B1 VH with A40T
VL: B1 VL with K36R, I81V, V91L, D97A
notes: mouse hybridoma mAb
B14: 426H6E11 (antibody, V domains shown)
VH: B1 VH with A40T, K65Q, A118S
VL: B1 VL with S7F, S28T, V91L, D97A, K109N
notes: mouse hybridoma mAb
B15: 430B3F1 (antibody, V domains shown)
VH: B1 VH with A40T, S55G, K65Q, V116I, A118S
VL: B1 VL with V91L, D97A
notes: mouse hybridoma mAb
B16: 406G3C4 (antibody, V domains shown)
VH: EIQLQQSGPELMKPGASVRISCKASGYSFISYYIYWVKQSHGKGLEWIGYIDPFNGNTNYNQKFKGKATLTVDRSSSTAYIHLNSLTSEDSAVYYCAIVNGYGRGAMDYWGQGTSVTVSS
VL: QIVLTQSPAIMSASPGEKVTMTCSASSSISYMHWYQQKSGTSPKRWIYDTSKLASGVPARFSGSGSGTSYSLTISSMEAEDAATYYCQQWSSNPLTFGDGTKLELK
notes: mouse hybridoma mAb
B17: 410H6H3 (antibody, V domains shown)
VH: DVLLVESGGGLVQPGGSRKLSCAASGFTFSSSGMHWVRQAPEKGLEWVAYISSGSNTIYYADTLKGRFTISRDNPKNTLFLQMTSLRSEDTAMYYCARIYYGNSFVYWGQGTLVTVSA
VL: B1 VL with F10S, T20I, L52M, T69R, D97N, S99Y, F100Y, A106T, E111A
notes: mouse hybridoma mAb
B18: 392C2F10 (antibody, V domains shown)
VH: EVQLQQSGPELVKPGASMKISCKASGYSFTGYTMNWVKQSLGKNLEWIGLINPFNGGTTYNQKFKGKATLTVDKSSSTAYMELLSLTSDDSAVYYCTRGDYWGQGTTLTVSS
VL: DIVMTQSPSSLTVTAGEKVTMSCKSSQSLLNSGNQKNYLTWYQQKPGQPPKLLIYWASTRESGVPDRFAGSGSGTDFTLTISSVQAEDLAVYYCQSDYSYPTFGAGTKLELK
notes: mouse hybridoma mAb
B19: 393C2C5 (antibody, V domains shown)
VH: B1 VH with G31S, I37V, R56S, R98T, D106A, H107Y
VL: B1 VL with F10S, S28T, P46S, D97A, F100Y, L102V, A106S, L110V
notes: mouse hybridoma mAb
B20: 407H12E6 (antibody, V domains shown)
VH: B1 VH with F29V, G31S, I37V, R56S, M93I
VL: B1 VL with F10S, A15T, P49S, A86T, Y93F, D97N, S99F
notes: mouse hybridoma mAb
B21: 412B6E4 (antibody, V domains shown)
VH: DVQLVESGGGLVQPGGSRKLSCAASGFTFSSFGVHWVRQAPEKGLEWVAYISSGSSTIYYAHSVKGRFTISRDNPKNTLFLQMTSLGSEDTATYYCARFYYGNSFAYWGQGTLVTVSA
VL: B1 VL with F10S, L52M, D97A, S99T, F100Y, K109R
notes: mouse hybridoma mAb
B22: 405G8F11 (antibody, V domains shown)
VH: B1 VH with A23V, A24T, G31S, I37V, R56S, T84S, D106A, H107Y
VL: B1 VL with F10S, S22N, P46L, I54M, Y93F, N96S, D97A, Y98F, F100Y
notes: mouse hybridoma mAb
B23: 413B1C9 (antibody, V domains shown)
VH: B1 VH with G31S, I37V, R56S
VL: B1 VL with F10S, A15T, T20S, L30F, S32R, N37S, D97N, S99I, F100Y
notes: mouse hybridoma mAb
B24: 410A9A9 (antibody, V domains shown)
VH: B1 VH with G31S, I37V, R56S, R98T, D106A, H107Y
VL: B1 VL with F10S, S28T, P46S, D97A, F100Y, L102V, A106S, L110V
notes: mouse hybridoma mAb
B25: 414A5F7 (antibody, V domains shown)
VH: B1 VH with G31S, I37V, R56S, F99I, D106A, H107Y
VL: B1 VL with F10S, T20A, S28T, I54L, D97A, S99Y, F100Y, A106S
notes: mouse hybridoma mAb
B26: 422F4B6 (antibody, V domains shown)
VH: B1 VH with T28S, G31S, I37V, R56S, T69I, F99I, D106A, H107Y
VL: B1 VL with F10S, S28T, D97A, F100Y, A106S
notes: mouse hybridoma mAb
B27: 419B5G9 (antibody, V domains shown)
VH: DVQLVESGGGLVQPGGSRKLSCAASGFTFSTFGMHWVRQAPEKGLEWVAYISGGSTTIFYADTVKGRFTISRDNPKNTLFLQMTSVRSEDTAMYYCARFYYGNSFAYWGPGTLVTVST
VL: B1 VL with F10S, L52M, D97A, F100Y
notes: mouse hybridoma mAb
B28: 423B2B5 (antibody, V domains shown)
VH: B1 VH with G31S, I37V, R56S, A61S, T84S, F99I
VL: B1 VL with F10S, S22N, F100Y
notes: mouse hybridoma mAb
B29: 416F12F3 (antibody, V domains shown)
VH: B21 VH with V34M, T93M
VL: B1 VL with F10S, M21L, L52M, D97A, S99T, F100Y, K109R
notes: mouse hybridoma mAb
B30: 423C10E1 (antibody, V domains shown)
VH: DVQLVESGGGLVQPGGSRKLSCVTSGFTFSSFGMHWVRQAPEKGLEWVAFISGGGSPIFYADSVKGRFTVSRDNPKNTLFLQMTGLRSEDTAMYFCARFYFGNSFAYWGQGTLVTVSA
VL: DIVMTQSPSSLTVTAGEKVTMNCRSSQSLFNSGNQKNYLTWYQQKPGQSPKLLIYWASTRESGVPVRFTGSGSGTDFTLTISSVQAEDLAVYYCQTSFNYPLTFGPGTKLELK
notes: mouse hybridoma mAb
B31: 420H7E6 (antibody, V domains shown)
VH: B30 VH with V37I
VL: B30 VL with T5A, S49P, S97G, N99S
notes: mouse hybridoma mAb
B32: 418B8B10 (antibody, V domains shown)
VH: B1 VH with G31S, I37V, R56S, A61T
VL: B1 VL with F10S, T20S, L30F, S32R, N37S, K45R, D97N, S99I, F100Y
notes: mouse hybridoma mAb
B33: 420H3H9 (antibody, V domains shown)
VH: B21 VH with V34M, T93M
VL: B1 VL with F10S, M21L, L52M, V91D, D97A, S99T, F100Y, K109R
notes: mouse hybridoma mAb
B34: 370E2B12C3 (antibody, V domains shown)
VH: QVQLKESGPGLVAPSQSLSITCTVSGFSLTTYGVHWVRQPPGKGLEWLGVIWAGGSTNYNSALMSRVSINKDNSKSQVFIKMNSLQADDTALYYCARAAYYGNGLDYWGQGTTLTVSS
VL: B1 VL with F10S, S28T, R60G, Y93F, D97A, S99F, F100Y, L102F, A106G, L112I
notes: mouse hybridoma mAb

target: T1, human Claudin18.2 (human); test: cell ELISA, Claudin18.2-expressing HEK293T cells
T1 construct: also called CLDN18.2
Outline: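 Claudin18.2-expressing HEK293T stable cells (1.5×10⁶ cells/ml in 5% skim milk/PBS blocking buffer) were incubated 1 h at room temperature in plates pre-blocked overnight at 4° C. EC₅₀ was derived by four-parameter curve fit.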

With B1 as the binder, how does the EC50 read?
The EC50 was 3.47 nM.

For B2, which EC50 is on record?
Its EC50 is 3.55 nM.

How did the EC50 turn out when B3 was run?
The EC50 was 12 nM.

For B4, which EC50 is on record?
Its EC50 is 2.61 nM.

For B5, which EC50 is on record?
Its EC50 is 2.33 nM.

With B6 as the binder, how does the EC50 read?
The EC50 was 7.03 nM.

Which EC50 does the source give for B7 here?
Its EC50 is 2.61 nM.

How did the EC50 turn out when B8 was run?
Its EC50 is 2.39 nM.

With B9 as the binder, how does the EC50 read?
Its EC50 is 2.47 nM.

How did the EC50 turn out when B10 was run?
The EC50 was 1.88 nM.

Which EC50 does the source give for B11 here?
Its EC50 is 2.61 nM.

Which EC50 does the source give for B12 here?
The EC50 was 1.92 nM.

B13 was tested. Which EC50 did it give?
Its EC50 is 2.14 nM.

With B14 as the binder, how does the EC50 read?
Its EC50 is 1.78 nM.

How did the EC50 turn out when B15 was run?
Its EC50 is 2.56 nM.

Which EC50 does the source give for B16 here?
The EC50 was 12.6 nM.

For B17, which EC50 is on record?
Its EC50 is 45.5 nM.

With B18 as the binder, how does the EC50 read?
Its EC50 is 350 nM.

B19 was tested. Which EC50 did it give?
Its EC50 is 4.45 nM.

How did the EC50 turn out when B20 was run?
The EC50 was 2.39 nM.

How did the EC50 turn out when B21 was run?
Its EC50 is 33.1 nM.

With B22 as the binder, how does the EC50 read?
Its EC50 is ~91.2 nM.

Which EC50 does the source give for B23 here?
The EC50 was 24.6 nM.

Which EC50 does the source give for B24 here?
Its EC50 is 6.21 nM.

Which EC50 does the source give for B25 here?
The EC50 was 15.5 nM.

How did the EC50 turn out when B26 was run?
The EC50 was 2.53 nM.

B27 was tested. Which EC50 did it give?
The EC50 was 22.5 nM.

For B28, which EC50 is on record?
Its EC50 is 12.7 nM.

With B29 as the binder, how does the EC50 read?
Its EC50 is 14.7 nM.

B30 was tested. Which EC50 did it give?
The EC50 was 2.46 nM.

How did the EC50 turn out when B31 was run?
The EC50 was 2.94 nM.

Which EC50 does the source give for B32 here?
Its EC50 is 3.17 nM.

How did the EC50 turn out when B33 was run?
Its EC50 is 20.7 nM.

For B34, which EC50 is on record?
Its EC50 is 0.522 nM.

Reference: US20220073643A1 (NANJING GENSCRIPT BIOTECH, published 2022)
